Test [1] concerns the target T1, recombinant biotinylated human FcRn (human, UniProt P55899 24-297, limits assumed, biotinylated).
T1 construct: also called human neonatal Fc receptor
In words: AlphaLISA competition at pH 6; test molecule competes with human IgG acceptor beads for biotinylated human FcRn. As for the experimental part:
The interaction of the unmodified and of conjugated anti-PD1 antibodies with the human neonatal Fc receptor (FcRn) at pH 6 was measured using the AlphaLISA® Human FcRn Binding Kit (AL3095C) from Perkin Elmer (Schwerzenbach, Switzerland).
After 90 min at 23° C. in the dark, AlphaLISA® signal was measured on an EnSpire plate reader (Excitation at 680 nm, Emission at 615 nm) from Perkin Elmer (Schwerzenbach, Switzerland).

The target in test [2] is T2, recombinant Human Fc gamma RI/CD64 Protein (R&D systems, 1257-FC-050, CF) (human, UniProt P12314 16-288).
T2 construct: Bought protein; also called FcγRI; FcgRI
T2 sequence (P12314 16-288 limits assumed): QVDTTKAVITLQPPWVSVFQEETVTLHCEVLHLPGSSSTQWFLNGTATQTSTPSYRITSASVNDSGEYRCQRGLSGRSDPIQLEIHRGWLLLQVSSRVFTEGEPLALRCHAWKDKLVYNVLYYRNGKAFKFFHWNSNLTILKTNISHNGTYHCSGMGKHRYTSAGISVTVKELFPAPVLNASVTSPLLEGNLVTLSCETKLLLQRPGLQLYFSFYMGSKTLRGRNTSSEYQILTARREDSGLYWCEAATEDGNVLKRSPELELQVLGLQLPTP
The experiment in a line: ELISA; antibody coated on plate, recombinant receptor titrated. As for the experimental part: (§1) The interaction of the unmodified and of conjugated anti-PD1 antibodies with human Fc gamma receptors I (FcγRI/CD64), with human Fc gamma receptors Ha (FcγRIIa/CD32a), with inhibitory human Fc gamma receptors IIb (FcγRIIb/CD32b), and with human Fc gamma receptors III FcγR3a/CD16 were measured by ELISA. Briefly, Corning high-binding half-area plates (Fisher Scientific, Reinach, Switzerland) were coated overnight at 4° C. with 25 μl of unmodified and of conjugated anti-PD1 antibodies at 2.5 μg/ml in PBS. Plates were then washed four times with 100 μl of PBS-0.02% Tween20. Plates surfaces were blocked with 25 μl of PBS-0.02% Tween20-1% BSA at 37° C. during 1 h. Plates were then washed four times with 100 μl of PBS-0.02% Tween20. Then twenty-five microliters of either recombinant Human Fc gamma RI/CD64 Protein (R&D systems, 1257-FC-050, CF), recombinant Human Fc gamma RIIA/CD32a (H167) Protein (R&D systems, 9595-CD-050, CF), recombinant Human Fc gamma RIIB/CD32b Avi-tag Protein (R&D systems, AVI1875-050, CF), or recombinant Human Fc gamma RIIIA/CD16a Protein (R&D systems, 4325-FC-050; CF) were added in five-fold serial dilutions ranging from 1000 nM to 0.001 nM into PBS-0.02% Tween20-0.1% BSA and incubated at 37° C. during 2 h. […] ELISA signal was then measured at 450 nm on an EnSpire plate reader from Perkin Elmer (Schwerzenbach, Switzerland). […]

Test [3] concerns the target T3, recombinant Human Fc gamma RIIIA/CD16a Protein (R&D systems, 4325-FC-050; CF) (human, UniProt P08637 17-208, limits assumed).
T3 construct: Bought protein; also called FcγRIIIa; FcgRIIIa
The description is as above. How it is done:
as §1

In test [4] the target is T4, recombinant biotinylated PD1/CD279 protein from Biolegend (789406) (UniProt Q15116 25-167, limits assumed, biotinylated).
T4 construct: also called PD1/CD279 ligand
T4 sequence (Q15116 25-167 limits assumed): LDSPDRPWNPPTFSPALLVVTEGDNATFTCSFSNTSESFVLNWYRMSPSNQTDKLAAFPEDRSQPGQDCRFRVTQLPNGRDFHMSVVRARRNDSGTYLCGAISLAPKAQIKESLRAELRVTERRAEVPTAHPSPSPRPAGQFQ
In words: ELISA; antibody coated on plate, biotinylated PD-1 titrated, streptavidin-HRP. As for the experimental part: The interaction of the unmodified and of conjugated anti-PD1 antibodies with PD-1 (CD279) were measured by ELISA assay. For these studies, Corning high-binding half-area plates (Fisher Scientific, Reinach, Switzerland) were coated overnight at 4° C. with 25 μl of unmodified or conjugated anti-PD1 antibodies at 2.5 μg/ml in PBS. Plates were then washed four times with 100 μl of PBS-0.02% Tween20. Plate surfaces were blocked with 25 μl of PBS-0.02% Tween20-1% BSA at 37° C. during 1 h. Plates were then washed four times with 100 μl of PBS-0.02% Tween20. […] Plates were then washed four times with 100 μl of PBS-0.02% Tween20. Twenty-five microliters of Streptavidin-Horseradish peroxidase (#RABHRP3, Merck, Buchs, Switzerland) diluted at 1:500 in PBS-0.02% Tween20-0.1% BSA were added to each well and incubated at Room Temperature during 30 min. Plates were then washed four times with 100 μl of PBS-0.02% Tween20. Fifty microliters of TMB substrate reagent (#CL07, Merck, Buchs, Switzerland) were added to each well and incubated at 37° C. during 5 min. After 5 min at 37° C., Horseradish peroxidase reaction was stopped by adding 50 μl/well of 0.5M H₂SO₄ stop solution. ELISA signal was then measured at 450 nm on an EnSpire plate reader from Perkin Elmer (Schwerzenbach, Switzerland).

T1 sequence (P55899 24-297 limits assumed, form in doubt): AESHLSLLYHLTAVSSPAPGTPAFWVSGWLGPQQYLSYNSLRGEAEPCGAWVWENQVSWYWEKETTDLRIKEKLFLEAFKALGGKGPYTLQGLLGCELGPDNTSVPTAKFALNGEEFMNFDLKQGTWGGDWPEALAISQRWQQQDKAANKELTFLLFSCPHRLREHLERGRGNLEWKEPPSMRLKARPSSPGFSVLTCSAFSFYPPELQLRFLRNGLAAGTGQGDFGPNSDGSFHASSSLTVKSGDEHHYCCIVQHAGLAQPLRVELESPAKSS
T3 sequence (P08637 17-208 limits assumed): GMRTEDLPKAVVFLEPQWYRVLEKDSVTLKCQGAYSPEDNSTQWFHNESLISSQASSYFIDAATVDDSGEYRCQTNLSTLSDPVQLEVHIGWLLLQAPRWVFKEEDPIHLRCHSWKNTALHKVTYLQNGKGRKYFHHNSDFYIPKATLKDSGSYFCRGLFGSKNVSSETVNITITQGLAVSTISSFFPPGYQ

B1: Pembrolizumab (antibody, human IgG4 S228P, kappa)
heavy: not shown
light: EIVLTQSPATLSLSPGERATLSCRASKGVSTSGYSYLHWYQQKPGQAPRLLIYLASYLESGVPARFSGSGSGTDFTLTISSLEPEDFAVYYCQHSRDLPLTFGGGTKVEIKRTVAAPSVFIFPPSDEQLKSGTASVVCLLNNFYPREAKVQWKVDNALQSGNSQESVTEQDSKDSTYSLSSTLTLSKADYEKHKVYACEVTHQGLSSPVTKSFNRGEC
notes: also called Lambrolizumab
Regarding B1, the dissociation constant (Kd) turned out to be 0.00731 µM in test [1], 0.000488 µM in test [2] and 0.289 µM in test [3].

B2: Composition K (antibody)
VH: QVQLVQSGAEVKKPGASVKVSCKASGYTFTSYYMYWVRQAPGQGLEWMGGVNPSNGGTNFNEKFKSRVTITADKSTSTAYMELSSLRSEDTAVYYCARRDYRYDMGFDYWGQGTTVTVSS
VL: EIVLTQSPATLSLSPGERATISCRASKGVSTSGYSYLHWYQQKPGQAPRLLIYLASYLESGVPARFSGSGSGTDFTLTISSLEPEDFATYYCQHSRELPLTFGTGTKVEIK
chain: APTSSSTKKTQLQLEHLLLDLQXILNGINNYKNPKLTRXLXYKFYXPKKATELKHLQCLEEELKPLEEVLXLAQSKNFHLRPRDLISNINVIVLELKGSETTFXCEYADETATIVEFLNRWITFSQSIISTLT
modifications: not fully specified; Composition AB: Nle at 23, 39, 46; Hse at 41, 71, 104; ~0.5 kDa PEG on Y45; 0.5 kDa PEG capped with azide on F42Y, reacted with DBCO on K288 (EU numbering) of the antibody's Fc region
notes: Immunocytokine; linker at K288 of the Fc region
As to B2, in test [4], the dissociation constant Kd is 41 µM.

B3: Composition H (antibody)
VH: B2 VH
VL: B2 VL
chain: B2 chain
modifications: not fully specified; Composition AB: Nle at 23, 39, 46; Hse at 41, 71, 104; ~0.5 kDa PEG on Y45; 0.5 kDa PEG capped with azide on F42Y, reacted with DBCO on K248 (EU numbering) of the antibody's Fc region
notes: Immunocytokine; linker at K248 of the Fc region, DAR 1; also called LZM-009 conjugated to Composition AB, DAR 1, K248
On to B3, for which, in test [4], the Kd worked out at 37 µM.

B4: Composition J (antibody)
VH: B2 VH
VL: B2 VL
chain: B2 chain
modifications: not fully specified; Composition AB: Nle at 23, 39, 46; Hse at 41, 71, 104; ~0.5 kDa PEG on Y45; 0.5 kDa PEG capped with azide on F42Y, reacted with DBCO on K288 (EU numbering) of the antibody's Fc region
notes: Immunocytokine; linker at K288 of the Fc region, DAR 1; also called LZM-009 conjugated to Composition AB, DAR 1, K288
Consider B4, for which the dissociation constant Kd in test [4] was found to be 27 µM.

B5: LZM-009 (antibody, V domains shown)
VH: B2 VH
VL: B2 VL
As to B5, the dissociation constant Kd in test [4] came to 35 µM.

Values taken from patent publication US20230250181A1 (published 2023).
